US20110092418A1 (FLOREKY INSTITUTE OF EXPERIMENTAL PHYSIOLOGY AND MEDICINE, published 2011)
No end group written: not given here.

B1: chimeric relaxin polypeptide H2 B chain/H3 relaxin A chain (designed binder)
chain 1: DSWMEEVIKLCGRELVRAQIAICGMSTWS
chain 2: DVLAGLSSSCCKWGCSKSEISSLC
notes: Synthetic two-chain chimera; The synthesis protocol is detailed only for H2-B/H1-A; also called H2-B/H3-A
B2: chimeric relaxin polypeptide H2 B chain/INSL3 A chain (designed binder)
chain 1: DSWMEEVIKLCGRELVRAQIAICGMSTWS
chain 2: AAATNPARYCCLSGCTQQDLLTLCPY
notes: Synthetic two-chain chimera; The synthesis protocol is detailed only for H2-B/H1-A; also called H2-B/INSL3-A
B3: human relaxin 2 (H2), wild-type; A + B chain (ligand)
chain 1: DSWMEEVIKLCGRELVRAQIAICGMSTWS
chain 2: QLYSALANKCCHVGCTKRSLARFC
modifications: disulfide (positions not given here); also: A and B chains joined by disulphide bonds, places not given here
notes: Two-chain peptide hormone, A and B chains joined by disulphide bonds; also called H2 relaxin
B4: human relaxin 3 (H3), wild-type; A + B chain (ligand)
chain 1: RAAPYGVRLCGREFIRAVIFTCGGSRW
chain 2: DVLAGLSSSCCKWGCSKSEISSLC
modifications: disulfide (positions not given here); also: A and B chains joined by disulphide bonds, places not given here
notes: domain: B chain; Two-chain peptide hormone, A and B chains joined by disulphide bonds; also called H3 relaxin
B5: chimeric relaxin polypeptide H2 B chain/INSL5 A chain (designed binder)
chain 1: DSWMEEVIKLCGRELVRAQIAICGMSTWS
chain 2: DLQTLCCTDGCSMTDLSALC
notes: Synthetic two-chain chimera; The synthesis protocol is detailed only for H2-B/H1-A; also called H2-B/INSL5-A

Columns and labels:
LGR7 (RXFP1) receptor [1] = target: T1, LGR7 (RXFP1) receptor (UniProt Q9HBX9 1-757, limits assumed); assay: whole cell competition binding against 100 pM [125I]-H2 relaxin, LGR7-transfected HEK293T cells
T1 construct: whole, on cells
T1 sequence (looked up): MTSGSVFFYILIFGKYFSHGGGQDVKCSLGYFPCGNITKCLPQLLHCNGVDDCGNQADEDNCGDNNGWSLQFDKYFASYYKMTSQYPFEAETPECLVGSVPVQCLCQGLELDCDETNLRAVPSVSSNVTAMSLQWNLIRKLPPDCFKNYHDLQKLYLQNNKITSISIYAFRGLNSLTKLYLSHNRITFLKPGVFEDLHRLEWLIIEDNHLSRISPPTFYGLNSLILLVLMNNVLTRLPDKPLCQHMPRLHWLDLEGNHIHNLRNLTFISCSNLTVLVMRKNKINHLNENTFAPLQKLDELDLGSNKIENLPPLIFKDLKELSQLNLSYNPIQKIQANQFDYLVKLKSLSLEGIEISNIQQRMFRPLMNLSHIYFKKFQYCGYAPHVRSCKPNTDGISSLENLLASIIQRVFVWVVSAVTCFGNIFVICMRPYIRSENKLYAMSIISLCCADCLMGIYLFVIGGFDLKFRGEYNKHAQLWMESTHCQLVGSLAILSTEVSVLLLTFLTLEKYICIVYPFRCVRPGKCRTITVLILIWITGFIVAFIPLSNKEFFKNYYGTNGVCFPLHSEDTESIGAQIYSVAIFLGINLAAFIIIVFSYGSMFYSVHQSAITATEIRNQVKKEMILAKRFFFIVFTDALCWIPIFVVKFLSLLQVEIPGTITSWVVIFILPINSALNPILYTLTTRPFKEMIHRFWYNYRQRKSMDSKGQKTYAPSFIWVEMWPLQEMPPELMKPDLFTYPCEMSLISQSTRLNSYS
Experimental: Non-specific binding was determined by addition of excess unlabelled relaxin (500 nM). Data were analysed using GraphPad Prism.

LGR8 (RXFP2) receptor = LGR8 (RXFP2) receptor (UniProt Q8WXD0 1-754, limits assumed); assay: cell-based or functional assay
LGR7 (RXFP1) receptor [2] = target: T1, LGR7 (RXFP1) receptor; assay: cell-based or functional assay

Sequence of LGR8 (RXFP2) receptor (Q8WXD0 whole entry): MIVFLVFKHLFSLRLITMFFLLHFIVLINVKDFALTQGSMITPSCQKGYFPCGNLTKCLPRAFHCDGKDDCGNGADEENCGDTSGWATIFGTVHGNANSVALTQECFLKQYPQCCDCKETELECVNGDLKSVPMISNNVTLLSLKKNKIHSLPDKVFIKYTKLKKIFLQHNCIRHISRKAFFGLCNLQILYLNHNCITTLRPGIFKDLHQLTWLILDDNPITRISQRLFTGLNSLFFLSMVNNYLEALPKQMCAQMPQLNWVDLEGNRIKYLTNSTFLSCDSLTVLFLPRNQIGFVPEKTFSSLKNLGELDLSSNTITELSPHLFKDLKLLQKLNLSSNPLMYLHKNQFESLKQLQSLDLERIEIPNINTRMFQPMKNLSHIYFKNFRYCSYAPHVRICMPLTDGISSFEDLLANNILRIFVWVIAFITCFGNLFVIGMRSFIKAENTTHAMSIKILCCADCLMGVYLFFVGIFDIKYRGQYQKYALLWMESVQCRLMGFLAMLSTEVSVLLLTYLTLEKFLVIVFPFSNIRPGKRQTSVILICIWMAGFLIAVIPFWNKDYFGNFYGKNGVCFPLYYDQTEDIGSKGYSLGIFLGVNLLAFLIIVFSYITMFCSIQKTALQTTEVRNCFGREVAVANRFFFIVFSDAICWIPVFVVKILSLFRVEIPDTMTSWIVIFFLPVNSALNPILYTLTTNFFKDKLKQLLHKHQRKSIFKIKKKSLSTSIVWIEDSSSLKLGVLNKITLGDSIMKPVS

Binder	pKi (LGR7 (RXFP1) receptor [1]) [pKi]	LGR8 cAMP pEC50 (LGR8 (RXFP2) receptor) [pEC50]	LGR7 cAMP pEC50 (LGR7 (RXFP1) receptor [2]) [pEC50]
B1	6.8	5.34	8.1
B2	6.21	> 6	< 6
B3	9.03	9.13	10.3
B4	7.88		9.36
B5	5.31		6.37
